In the test the target is T1, Pup ligase CgluPafA-His6 (proteasome accessory factor A from Corynebacterium glutamicum) (Corynebacterium glutamicum, UniProt Q8NQE1 1-482).
T1 construct: Pup ligase PafA, Corynebacterium glutamicum; The anisotropy methods call the titrated protein only 'CgluPafA'
T1 sequence (looked up): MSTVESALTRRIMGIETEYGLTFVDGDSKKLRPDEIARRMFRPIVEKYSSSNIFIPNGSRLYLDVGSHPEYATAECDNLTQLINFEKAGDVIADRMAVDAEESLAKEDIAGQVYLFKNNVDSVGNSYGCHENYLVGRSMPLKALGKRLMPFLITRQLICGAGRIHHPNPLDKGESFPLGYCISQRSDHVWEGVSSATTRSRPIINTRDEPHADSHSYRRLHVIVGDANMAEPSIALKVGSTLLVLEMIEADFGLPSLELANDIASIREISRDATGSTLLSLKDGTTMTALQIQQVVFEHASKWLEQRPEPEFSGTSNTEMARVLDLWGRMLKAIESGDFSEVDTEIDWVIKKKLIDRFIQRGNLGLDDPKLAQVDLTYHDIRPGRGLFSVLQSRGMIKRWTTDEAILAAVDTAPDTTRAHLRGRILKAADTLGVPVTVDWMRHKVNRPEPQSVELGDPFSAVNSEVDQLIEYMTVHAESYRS
Put plainly: fluorescence polarisation; fluorescence anisotropy on a Synergy BioTek plate reader; 12.5 nM CgluPup-Q30C-Fluorescein labeled substrate or free CgluPup with 0 to 30 uM CgluPafA; 50 mM Tris pH 8.04 (RT), 150 mM NaCl, 0.5 mM EDTA, 0.001% Tween-20. Particulars: both partners purified. (In general: Polarisation of emitted light reports the rotation of a fluorescent probe.)

By Kd is commonly meant the equilibrium constant for the complex coming apart.

B1: fluorescein-labeled CgluPup-Q30C variant (free) (natural protein, Corynebacterium glutamicum, UniProt Q8NQE0 1-64, looked up)
chain: MNAKQTQIMGGGGRDEDNAEDSAQASGQVC(fluorescein‑5‑maleimide)INTEGVDSLLDEIDGLLENNAEEFVRSYVQKGGE
notes: prokaryotic ubiquitin-like protein Pup, Corynebacterium glutamicum; also called CgluPup-Q30C-Fluorescein; free CgluPup-Q30C
Regarding B1, the equilibrium dissociation constant (Kd) was 1.82 ± 0.18 µM.
